US9862971B2 (BUNDESREPUBLIK DEUTSCHLAND, LETZTVERTRETEN DURCH DEN …, dated 2018)

Molecular target: CD46 (human, UniProt P15529)
Experiment: cell-based or functional assay

B1: MeV HEdm wildtype (wt) protein (other)
chain: MSPQRDRINAFYKDNPHPKGSRIVINREHLMIDRPYVLLAVLFVMFLSLIGLLAIAGIRLHRAAIYTAEIHKSLSTNLDVTNSIEHQVKDVLTPLFKIIGDEVGLRTPQRFTDLVKFISDKIKFLNPDREYDFRDLTWCINPPERIKLDYDQYCADVAAEELMNALVNSTLLETRTTNQFLAVSKGNCSGPTTIRGQFSNMSLSLLDLYLGRGYNVSSIVTMTSQGMYGGTYLVEKPNLSSKRSELSQLSMYRVFEVGVIRNPGLGAPVFHMTNYLEQPVSNDLSNCMVALGELKLAALCHGEDSITIPYQGSGKGVSFQLVKLGVWKSPTDMQSWVPLSTDDPVIDRLYLSSHRGVIADNQAKWAVPTTRTDDKLRMETCFQQACKGKIQALCENPEWAPLKDNRIPSYGVLSVDLSLTVELKIKIASGFGPLITHGSGMDLYKSNHNNVYWLTIPPMKNLALGVINTLEWIPRFKVSPYLFTVPIKEAGGDCHAPTYLPAEVDGDVKLSSNLVILPGQDLQYVLATYDTSRVEHAVVYYVYSPSRSFSYFYPFRLPIKGVPIELQVECFTWDQKLWCRHFCVLADSESGGHITHSGMVGMGVSCTVTREDGTNRR
With B1 the “titer [t.u./ml] of HIV-1 vector particles on 293T cells, concentrated supernatant” value was 0 t.u./ml and the “titer [t.u./ml] of HIV-1 vector particles on U-87MG cells, concentrated supernatant” value was 0 t.u./ml.
